Data on seven molecules can be found in article PMC10135883, “Structural Basis of the Interaction between Human Axin2 and SIAH1 in the Wnt/β-Catenin Signaling Pathway” (Biomolecules, 2023).

In assay [1] the target is SIAH1-SBD (substrate-binding domain of E3 ubiquitin-protein ligase SIAH1, residues 89-282) (human) (UniProt Q8IUQ4). The assay is described as follows: ITC; ITC200, 25 °C; 20 mM Tris-HCl pH8.0, 100 mM NaCl; 330 μM Axin2 peptide injected into 30 μM SIAH1; single binding site model.
The target of assay [2] is SIAH1-SBD (89-282) F165A (human) (UniProt Q8IUQ4). The assay is described as above.
The target of assay [3] is T1, SIAH1-SBD (substrate-binding domain of E3 ubiquitin-protein ligase SIAH1, residues 89-282) (human, UniProt Q8IUQ4-1 89-282).
T1 construct: Cloned from HeLa cDNA into pET28a with a TEV site at the N-terminal; The PDB code is printed as 8HEO in the results and as 8HE0 in the data availability statement; also called SIAH1-SBD_(89–282); SBD of SIAH1; source: E. coli BL21(DE3), purified (Ni-NTA, His-tag cleavage by TEV, Ni-NTA, HiTrap Q, Superdex 200); not shown: His tag, N-terminal, cleaved
T1 sequence (looked up): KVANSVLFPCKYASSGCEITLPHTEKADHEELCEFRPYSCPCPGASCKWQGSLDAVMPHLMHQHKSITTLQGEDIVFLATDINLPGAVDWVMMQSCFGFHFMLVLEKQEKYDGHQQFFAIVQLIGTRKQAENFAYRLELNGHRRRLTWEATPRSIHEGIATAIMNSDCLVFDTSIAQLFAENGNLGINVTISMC
The assay is described as follows: BLI; Octet Red96; GST-Axin2-GBD or its deletion loaded onto GST biosensors, quenched with GST; dipped into SIAH1-SBD at 0.03-30 μM; free-GST biosensors as controls. The following applies: both partners purified.

For assay [4], the target named is T2, wt Axin2_(356–368) peptide used in ITC, Q9Y2T1.
T2 chain: HRLPKEMTPVEPA
Briefly: ITC. The following applies: chain shown with the change;; parent: 8.77.

The target of assay [5] is T1, SIAH1-SBD (substrate-binding domain of …). The assay is described as follows: crystal structure; SIAH1-SBD mixed with Axin2 (356–376) at a molar ratio of 1:5; 0.1 M Bis-tris propane pH8.4, 24% PEG6000, 4 °C; 2.53 Å. The conditions noted are these: both partners purified.
For assay [6], the target named is T3, SIAH1-SBD (substrate-binding domain of E3 ubiquitin-protein ligase SIAH1, residues 89-282) (human, UniProt Q8IUQ4-1 89-282).
T3 chain: T1 sequence (looked up)
Briefly: ITC.

Residue numbers refer to the chain shown, from its start. Numbers in names are those of the source.

The molecule “Axin2_(356–368) E366A (from UniProt Q9Y2T1 356-368) (peptide)” had a dissociation constant Kd in assay [1] of 97.1 µM.

On to “wt Axin2_(356–368) peptide used in ITC (from UniProt Q9Y2T1 356-368)”, for which the equilibrium dissociation constant (Kd) in assay [2] was determined as 14.4 µM. In assay [1], the Kd was determined as 8.77 µM and the stoichiometry N worked out at 1.

B1: GST-Axin2-GBD (GSK3 binding domain of Axin2, residues 334-432, with a GST-tag) (domain or fragment, human, UniProt Q9Y2T1 334-432, looked up)
chain: QREMHRSVKANGQVSLPHFPRTHRLPKEMTPVEPATFAAELISRLEKLKLELESRHSLEERLQQIREDEEREGSELTLNSREGAPTQHPLSLLPSGSYE
notes: pGEX-6p-1 construct; also called Axin-GDB; source: E. coli BL21 (DE3), purified (glutathione sepharose 4B); not shown: GST, N-terminal, kept
In assay [3], B1 showed a Kd of about 2200 nM.

B2: SIAH1-SBD (substrate-binding domain of E3 ubiquitin-protein ligase SIAH1, residues 89-282), Q8IUQ4-1 Q159A (protein)
chain: T1 sequence (looked up) with Q71A
On to B2, for which the dissociation constant Kd in assay [4] came out at 9.1 µM.

B3: SIAH1-SBD (substrate-binding domain of E3 ubiquitin-protein ligase SIAH1, residues 89-282), Q8IUQ4-1 T156A (protein)
chain: T1 sequence (looked up) with T68A
Regarding B3, the Kd in assay [4] was found to be 10.5 µM.

B4: Axin2 (residues 356–376) (peptide, UniProt Q9Y2T1 356-376, looked up)
chain: HRLPKEMTPVEPATFAAELIS
notes: human Axin2 (GenBank NM_004655.4), residues 356-376 within the GBD; also called Axin2_(356–376); Axin2 peptide; source: E. coli BL21 (DE3), purified (glutathione sepharose 4B, GST removed by PreScission protease, Superdex 75); not shown: GST, N-terminal, cleaved
For B4, the binding result in assay [5] is “binds”.

B5: Axin2_(356–368) single mutant T363A (peptide)
chain: HRLPKEMAPVEPATFAAELIS
B5: the Kd in assay [6] was found to be 8.7 µM.
